Reference: paper PMC9352680, “A comprehensive thermodynamic model for RNA binding by the Saccharomyces cerevisiae Pumilio protein PUF4”

T1: PUF4 RNA-binding domain (Saccharomyces cerevisiae, UniProt P25339 537-888)
T1 sequence: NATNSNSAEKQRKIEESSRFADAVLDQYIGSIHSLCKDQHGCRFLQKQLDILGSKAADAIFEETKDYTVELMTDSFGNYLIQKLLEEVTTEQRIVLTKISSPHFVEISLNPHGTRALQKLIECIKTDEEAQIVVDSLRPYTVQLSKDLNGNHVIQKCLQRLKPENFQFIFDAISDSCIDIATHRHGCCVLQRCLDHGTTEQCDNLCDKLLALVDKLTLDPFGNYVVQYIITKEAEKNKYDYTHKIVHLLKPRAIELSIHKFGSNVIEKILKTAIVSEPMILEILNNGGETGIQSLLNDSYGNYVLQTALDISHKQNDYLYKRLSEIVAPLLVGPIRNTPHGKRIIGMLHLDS


Target: T1, PUF4 RNA-binding domain
Assay: Mg; RNA-MaP; 20 mM Na-HEPES pH 7.4, 30 mM KOAc, 0.75 mM MgCl2, 0.1% Tween-20, 5% glycerol, 0.1 mg/mL BSA, 2 mM DTT; 25 C; 0.0125-409.6 nM protein
Conditions: tags: N-His6-TEV cleaved; C-SNAP kept, Cy3B-labelled; label: tethered on chip by stalled RNA polymerase

| Binder | Kd [nM] |
| --- | --- |
| UCUCUUACUAUAUAUACCUCUCUU (ssRNA) [Id_ii_S1_P3E.3_K3.2_C3.2_[C-2A]_[T-1C]_H3.2_A3.1_F3.1_T3.2_[T9C]_[A10C]] | 848 |
| UCUCUUUUUAUAUAUAGCUCUCUU (ssRNA) [Id_ii_S1_P3E.3_K3.2_C3.2_[C-2T]_H3.2_A3.1_F3.1_T3.2_[T9G]_[A10C]] | 490 |
| UCUCUUUUUAUAUAUAUCUCUCUU (ssRNA) [Id_ii_S1_P3E.3_K3.2_C3.2_[C-2T]_H3.2_A3.1_F3.1_T3.2_[A10C]] | 759 |
| UCUCUUCGUAUAUAUAGCUCUCUU (ssRNA) [Id_ii_S1_P3E.3_K3.2_C3.2_[T-1G]_H3.2_A3.1_F3.1_T3.2_[T9G]_[A10C]] | 419 |
| UCUCUUACUAUAUAUAGCUCUCUU (ssRNA) [Id_ii_S1_P3E.3_K3.2_C3.2_[C-2A]_[T-1C]_H3.2_A3.1_F3.1_T3.2_[T9G]_[A10C]] | 2200 |
| UCUCUUAGUAUAUAUAUGUCUCUU (ssRNA) [Id_ii_S1_P3E.3_K3.2_C3.2_[C-2A]_[T-1G]_H3.2_A3.1_F3.1_T3.2_[A10G]] | 502 |
| UCUCUUAUUAUAUAUACUUCUCUU (ssRNA) [Id_ii_S1_P3E.3_K3.2_C3.2_[C-2A]_H3.2_A3.1_F3.1_T3.2_[T9C]_[A10T]] | 528 |
| UCUCUUACUAUAUAUAUCUCUCUU (ssRNA) [Id_ii_S1_P3E.3_K3.2_C3.2_[C-2A]_[T-1C]_H3.2_A3.1_F3.1_T3.2_[A10C]] | 886 |
| UCUCUUAAUAUAUAUACUUCUCUU (ssRNA) [Id_ii_S1_P3E.3_K3.2_C3.2_[C-2A]_[T-1A]_H3.2_A3.1_F3.1_T3.2_[T9C]_[A10T]] | 344 |
| UCUCUUUUUAUAUAUACCUCUCUU (ssRNA) [Id_ii_S1_P3E.3_K3.2_C3.2_[C-2T]_H3.2_A3.1_F3.1_T3.2_[T9C]_[A10C]] | 1430 |
| UCUCUUAAUAUAUAUAUUUCUCUU (ssRNA) [Id_ii_S1_P3E.3_K3.2_C3.2_[C-2A]_[T-1A]_H3.2_A3.1_F3.1_T3.2_[A10T]] | 972 |
| UCUCUUAUUAUAUAUACAUCUCUU (ssRNA) [Id_ii_S1_P3E.3_K3.2_C3.2_[C-2A]_H3.2_A3.1_F3.1_T3.2_[T9C]] | 599 |
| UCUCUUAUUAUAUAUAAUUCUCUU (ssRNA) [Id_ii_S1_P3E.3_K3.2_C3.2_[C-2A]_H3.2_A3.1_F3.1_T3.2_[T9A]_[A10T]] | 814 |
| UCUCUUAAUAUAUAUAUGUCUCUU (ssRNA) [Id_ii_S1_P3E.3_K3.2_C3.2_[C-2A]_[T-1A]_H3.2_A3.1_F3.1_T3.2_[A10G]] | 698 |
| UCUCUUAGUAUAUAUAAAUCUCUU (ssRNA) [Id_ii_S1_P3E.3_K3.2_C3.2_[C-2A]_[T-1G]_H3.2_A3.1_F3.1_T3.2_[T9A]] | 877 |
| UCUCUUAGUAUAUAUAGUUCUCUU (ssRNA) [Id_ii_S1_P3E.3_K3.2_C3.2_[C-2A]_[T-1G]_H3.2_A3.1_F3.1_T3.2_[T9G]_[A10T]] | 156 |
| UCUCUUAGUAUAAUAUCUCUU (ssRNA) [Ib_S1_P4E.1_K4.1_C4.1_H4.1_[T1A]_A4.1_[T7A]_F4.1_T4.1] | 126 |
| UCUCUUAGUAUGUUAUCUCUU (ssRNA) [Ib_S1_P4E.1_K4.1_C4.1_H4.1_[T1A]_A4.1_[A6G]_F4.1_T4.1] | 1080 |
| UCUCUUUUUAUAUAUACUUCUCUU (ssRNA) [Id_ii_S1_P3E.3_K3.2_C3.2_[C-2T]_H3.2_A3.1_F3.1_T3.2_[T9C]_[A10T]] | 708 |
| UCUCUUUUUAUAUAUAUGUCUCUU (ssRNA) [Id_ii_S1_P3E.3_K3.2_C3.2_[C-2T]_H3.2_A3.1_F3.1_T3.2_[A10G]] | 1060 |

| Binder | Kd [nM] |
| --- | --- |
| UCUCUUCGUAUAUAUAAUUCUCUU (ssRNA) [Id_ii_S1_P3E.3_K3.2_C3.2_[T-1G]_H3.2_A3.1_F3.1_T3.2_[T9A]_[A10T]] | 675 |
| UCUCUUUUUACAUUAUCUCUU (ssRNA) [Ib_S1_P4E.1_K4.1_C4.1_H4.1_[G2T]_A4.1_[T5C]_F4.1_T4.1] | 914 |
| UCUCUUAAUAUAUAUAGCUCUCUU (ssRNA) [Id_ii_S1_P3E.3_K3.2_C3.2_[C-2A]_[T-1A]_H3.2_A3.1_F3.1_T3.2_[T9G]_[A10C]] | 633 |
| UCUCUUAAUAUAUAUAAAUCUCUU (ssRNA) [Id_ii_S1_P3E.3_K3.2_C3.2_[C-2A]_[T-1A]_H3.2_A3.1_F3.1_T3.2_[T9A]] | 1290 |
| UCUCUUAAUAUAUAUAGUUCUCUU (ssRNA) [Id_ii_S1_P3E.3_K3.2_C3.2_[C-2A]_[T-1A]_H3.2_A3.1_F3.1_T3.2_[T9G]_[A10T]] | 458 |
| UCUCUUAUUAUAUAUAUUUCUCUU (ssRNA) [Id_ii_S1_P3E.3_K3.2_C3.2_[C-2A]_H3.2_A3.1_F3.1_T3.2_[A10T]] | 383 |
| UCUCUUCGUAUAUAUAACUCUCUU (ssRNA) [Id_ii_S1_P3E.3_K3.2_C3.2_[T-1G]_H3.2_A3.1_F3.1_T3.2_[T9A]_[A10C]] | 629 |
| UCUCUUCCUAUAUAUAGCUCUCUU (ssRNA) [Id_ii_S1_P3E.3_K3.2_C3.2_[T-1C]_H3.2_A3.1_F3.1_T3.2_[T9G]_[A10C]] | 980 |
| UCUCUUAGUAUUUUAUCUCUU (ssRNA) [Ib_S1_P4E.1_K4.1_C4.1_H4.1_[T1A]_A4.1_[A6T]_F4.1_T4.1] | 798 |
| UCUCUUUUUAUAUAUAAGUCUCUU (ssRNA) [Id_ii_S1_P3E.3_K3.2_C3.2_[C-2T]_H3.2_A3.1_F3.1_T3.2_[T9A]_[A10G]] | 1550 |
| UCUCUUUUUAUAUAUACGUCUCUU (ssRNA) [Id_ii_S1_P3E.3_K3.2_C3.2_[C-2T]_H3.2_A3.1_F3.1_T3.2_[T9C]_[A10G]] | 1560 |
| UCUCUUCGUAUAUAUACCUCUCUU (ssRNA) [Id_ii_S1_P3E.3_K3.2_C3.2_[T-1G]_H3.2_A3.1_F3.1_T3.2_[T9C]_[A10C]] | 1710 |
| UCUCUUAUUAUAUAUAUAUCUCUU (ssRNA) [Id_ii_S1_P3E.3_K3.2_C3.2_[C-2A]_H3.2_A3.1_F3.1_T3.2] | 424 |
| UCUCUUACUAUAUAUACUUCUCUU (ssRNA) [Id_ii_S1_P3E.3_K3.2_C3.2_[C-2A]_[T-1C]_H3.2_A3.1_F3.1_T3.2_[T9C]_[A10T]] | 918 |
| UCUCUUAUUAUAUAUAGCUCUCUU (ssRNA) [Id_ii_S1_P3E.3_K3.2_C3.2_[C-2A]_H3.2_A3.1_F3.1_T3.2_[T9G]_[A10C]] | 1310 |
| UCUCUUUUUAUAUAUAAUUCUCUU (ssRNA) [Id_ii_S1_P3E.3_K3.2_C3.2_[C-2T]_H3.2_A3.1_F3.1_T3.2_[T9A]_[A10T]] | 968 |
| UCUCUUACUAUAUAUAUGUCUCUU (ssRNA) [Id_ii_S1_P3E.3_K3.2_C3.2_[C-2A]_[T-1C]_H3.2_A3.1_F3.1_T3.2_[A10G]] | 968 |
| UCUCUUUUUAUAUAUAUUUCUCUU (ssRNA) [Id_ii_S1_P3E.3_K3.2_C3.2_[C-2T]_H3.2_A3.1_F3.1_T3.2_[A10T]] | 457 |
| UCUCUUAUUAUAUAUAGUUCUCUU (ssRNA) [Id_ii_S1_P3E.3_K3.2_C3.2_[C-2A]_H3.2_A3.1_F3.1_T3.2_[T9G]_[A10T]] | 544 |
| UCUCUUAGUAUAUAUAUUUCUCUU (ssRNA) [Id_ii_S1_P3E.3_K3.2_C3.2_[C-2A]_[T-1G]_H3.2_A3.1_F3.1_T3.2_[A10T]] | 452 |

| Binder | Kd [nM] |
| --- | --- |
| UCUCUUUUUAUAUAUAUAUCUCUU (ssRNA) [Id_ii_S1_P3E.3_K3.2_C3.2_[C-2T]_H3.2_A3.1_F3.1_T3.2] | 510 |
| UCUCUUAAUAUAUAUACAUCUCUU (ssRNA) [Id_ii_S1_P3E.3_K3.2_C3.2_[C-2A]_[T-1A]_H3.2_A3.1_F3.1_T3.2_[T9C]] | 886 |
| UCUCUUAUUAUAUAUACGUCUCUU (ssRNA) [Id_ii_S1_P3E.3_K3.2_C3.2_[C-2A]_H3.2_A3.1_F3.1_T3.2_[T9C]_[A10G]] | 1860 |
| UCUCUUACUAUAUAUACAUCUCUU (ssRNA) [Id_ii_S1_P3E.3_K3.2_C3.2_[C-2A]_[T-1C]_H3.2_A3.1_F3.1_T3.2_[T9C]] | 1290 |
| UCUCUUCGUAUAAUAUCUCUU (ssRNA) [Ib_S1_P4E.1_K4.1_C4.1_H4.1_[T1C]_A4.1_[T7A]_F4.1_T4.1] | 131 |
| UCUCUUUUUAUAUAUACAUCUCUU (ssRNA) [Id_ii_S1_P3E.3_K3.2_C3.2_[C-2T]_H3.2_A3.1_F3.1_T3.2_[T9C]] | 1210 |
| UCUCUUAGUAUAUAUAUCUCUCUU (ssRNA) [Id_ii_S1_P3E.3_K3.2_C3.2_[C-2A]_[T-1G]_H3.2_A3.1_F3.1_T3.2_[A10C]] | 652 |
| UCUCUUCGUAUAUAUAUAUCUCUU (ssRNA) [Id_ii_S1_P3E.3_K3.2_C3.2_[T-1G]_H3.2_A3.1_F3.1_T3.2] | 488 |
| UCUCUUAGUAUAUAUACCUCUCUU (ssRNA) [Id_ii_S1_P3E.3_K3.2_C3.2_[C-2A]_[T-1G]_H3.2_A3.1_F3.1_T3.2_[T9C]_[A10C]] | 954 |
| UCUCUUUCUACAUUAUCUCUU (ssRNA) [Ib_S1_P4E.1_K4.1_C4.1_H4.1_[G2C]_A4.1_[T5C]_F4.1_T4.1] | 1450 |
| UCUCUUAUUAUAUAUAUCUCUCUU (ssRNA) [Id_ii_S1_P3E.3_K3.2_C3.2_[C-2A]_H3.2_A3.1_F3.1_T3.2_[A10C]] | 993 |
| UCUCUUACUAUAUAUAAAUCUCUU (ssRNA) [Id_ii_S1_P3E.3_K3.2_C3.2_[C-2A]_[T-1C]_H3.2_A3.1_F3.1_T3.2_[T9A]] | 1360 |
| UCUCUUAUUAUAUAUACCUCUCUU (ssRNA) [Id_ii_S1_P3E.3_K3.2_C3.2_[C-2A]_H3.2_A3.1_F3.1_T3.2_[T9C]_[A10C]] | 2290 |
| UCUCUUAAUAUAUAUACGUCUCUU (ssRNA) [Id_ii_S1_P3E.3_K3.2_C3.2_[C-2A]_[T-1A]_H3.2_A3.1_F3.1_T3.2_[T9C]_[A10G]] | 1980 |
| UCUCUUUUUAUAUAUAGUUCUCUU (ssRNA) [Id_ii_S1_P3E.3_K3.2_C3.2_[C-2T]_H3.2_A3.1_F3.1_T3.2_[T9G]_[A10T]] | 272 |
| UCUCUUAAUAUAUAUACCUCUCUU (ssRNA) [Id_ii_S1_P3E.3_K3.2_C3.2_[C-2A]_[T-1A]_H3.2_A3.1_F3.1_T3.2_[T9C]_[A10C]] | 2250 |
| UCUCUUCGUAUAUAUAAAUCUCUU (ssRNA) [Id_ii_S1_P3E.3_K3.2_C3.2_[T-1G]_H3.2_A3.1_F3.1_T3.2_[T9A]] | 653 |
| UCUCUUAGUAUAUAUAGCUCUCUU (ssRNA) [Id_ii_S1_P3E.3_K3.2_C3.2_[C-2A]_[T-1G]_H3.2_A3.1_F3.1_T3.2_[T9G]_[A10C]] | 494 |
